Data published in patent publication US20240209029A1, “ADIPONECTIN GLYCOPEPTIDES AND COMPOSITIONS AND METHODS OF USE THEREOF” (The University of Hong Kong, priority 2021, published 2024).

Tested on: MDA-MB-231 cells
Assay: Cancer cell proliferative assay (anti-proliferative activity, manual cell counting)
Format: cell-based, human
Method: FIGS. 3A-3B are bar graphs showing the Emax (FIG. 3A) and EC50 (FIG. 3B) of adiponectin or peptides with no glycans (hAdn-WM), or mono-, di-, tri- and tetra-glycans. The glyACD and adiponectin elicit synergistic anti-proliferative activity in human MDA-MB-231 cells. After serum starvation for 24 hours, MDA-MB-231 cells were treated with different concentrations of hAdn-WM, glyACD, full-length human adiponectin, or their combinations. After incubation for another 24 hours, cells were harvested for manual counting. FIG. 3C is a graph showing the inhibition rate on MDA-MB-231 cells of the indicated peptides. MDA-MB-231 cells were treated with different concentrations of adiponectin in the absence or presence of low (2.5 μg/ml) or high (20 μg/ml) doses of hAdn-WM or hAdn-WM656877101. FIG. 3D is a heatmap showing the percentage inhibition on cell growth. MDA-MB-231 cells were treated with 0, 0.22, 0.33, 0.49, 0.74, 1.11, 1.67, 2.5 μg/ml adiponectin in combination with 0, 0.3125, 0.625, 1.25, 2.5, 5, 10, 20 μg/ml hAdn-WM or hAdn-WM656877101. The percentage inhibition on cell growth was calculated and indicated by different intensity of the blue color. Data are presented as mean±SEM (n=6). *, P<0.05 vs full-length human adiponectin; ♦, P<0.05 vs peptide with no glycans (hAdn-WM); ▴, P<0.05 vs peptide with tetra-glycans (hAdn-WM656877101).
MDA-MB-231 cells were cultured in DMEM supplemented with 10% FBS and 1% penicillin-streptomycin-fungisone at 37° C. and under 5% CO2 95% humidified air. After harvesting, cells were seeded at a density of 3000 cells per well in 96-well plates and then cultured for 24 hours. After fasting in DMEM with 0.5% FBS for 24 hours, cells were subsequently stimulated with 2.5% FBS in the presence of peptides, human adiponectin or other drugs. The viable cell numbers at 24 hours at different doses were manually counted by mixing with trypan blue dye for analysis. The maximum inhibition rate (Emax) and half maximal effective concentration (EC50) were used to evaluate the anti-tumor activity of peptides and adiponectin. […]

[1] = 24 hours incubation, viable cells manually counted

B1: hAdiponectin: full-length human adiponectin, circulating glycoprotein hormone of 244 amino acids (SEQ ID NO:1) (protein, listed as Homo sapiens)
chain: MLLLGAVLLLLALPGHDQETTTQGPGVLLPLPKGACTGWMAGIPGHPGHNGAPGRDGRDGTPGEKGEKGDPGLIGPKGDIGETGVPGAEGPRGFPGIQGRKGEPGEGAYVYRSAFSVGLETYVTIPNMPIRFTKIFYNQQNHYDGSTGKFHCNIPGLYYFAYHITVYMKDVKVSLFKKDKAMLFTYDQYQENNVDQASGSVLLHLEVGDQVWLQVYGEGERNGLYADNDNDSTFTGFLLYHDTN
For B1, the “EC50” value [1] was 0.33 ± 0.11 µg/mL, the “Emax (%) maximum inhibition rate” value [1] was 69.3 ± 3.34% and the “Emax of human adiponectin” value (adiponectin alone (absence of peptide), FIG. 3C) was 66.7±4.29%.
